{"source": "patent US10494417B2", "about": "“Peptide inhibitors of BCR-ABL oligomerization” (University of Utah Research Foundation, priority 2014, dated 2019)", "key": {"[1]": {"tested_on": "Ba/F3 cells expressing BCR-ABL1E255V", "assay": "Colony forming assay of Ba/F3 BCR-ABL1 E255V cells", "type": "cell-based, mouse", "details": "for colony formation, in words: CCmut3 gene delivery (transfection; b502 lentiviral infection) vs EV; for reduction in CFCs / colony forming ability: CCmut3 vs EV", "protocol": "Following selection of transfected cells by cell sorting, viable cells were enumerated and seeded into methylcellulose as described previously (Dixon, A. S., et al. (2011) J. Biol. Chem. 286, 27751-27760). Briefly, mCherry-positive Ba/F3 cells were re-suspended in IMDM with 2% FBS (Stem Cell Technologies) at a concentration of 10,000 cells/mL. Three hundred microliters of this dilution was added to 3 mL of Methocult media (M3434—Ba/F3 p210 wild-type and mutant lines or M3234—Ba/F3 parental, Stem Cell Technologies). Approximately 1100 cells, or 1.2 mL, were seeded per dish in duplicate for each transfection. Colonies were counted 7 days later in an area of […] per dish.\nFollowing selection of transfected cells by cell sorting, methylcellulose colony assays were performed by plating in 0.9% methylcellulose (Stem Cell Technologies; M3234 for Ba/F3 BCR-ABL1 native and mutant lines; M3434 for Ba/F3 parental cells; H4230 for CML patient samples). mCherry-positive Ba/F3 cells (1.1×10^3 cells/plate) or GFP-positive primary CML CD34+ cells (1×10^3 cells/plate) were seeded per dish in duplicate. In the case of CML patient samples, cells were plated in the presence of 1× StemSpan CC100 cytokine cocktail (StemCell Technologies). All cells were plated with or without the indicated TKI in three or more independent experiments. Plates were incubated at 37° C. in a 5% CO2 humidified incubator. Colonies were counted 7-14 days later in an area of 50 μm2 per dish using an inverted microscope."}, "[2]": {"tested_on": "Ba/F3 cells expressing BCR-ABL1E255V/T315I", "assay": "Proliferation of transfected Ba/F3 BCR-ABL1 E255V/T315I cells (MTS assay)", "type": "cell-based, mouse", "details": "MTS assay at 72 and 96 h, CCmut3 vs EV", "protocol": "Stable recombinant Ba/F3 cells transduced with wild type p210 BCR-ABL1 (Daley, G. Q., et al. (1991) Proc. Natl. Acad. Sci. U.S.A. 88, 11335-11338), the kinase domain mutants p210^T315I p210^[…], or the compound mutant p210^E255V/T315I were as previously described (La Rosee, P., et al. (2002) Cancer Res. 62, 7149-7153; O'Hare, T., et al. (2004) Blood 104, 2532-2539). These cells were cultured in RPMI with 10% FBS, 1% penicillin, streptomycin, glutamine, and 0.1% gentamycin (RPMI1640). Additionally 0.1% MycoZap™ (Lonza Bio, Basel, Switzerland) was added to prevent mycoplasma contamination. […]\nCell proliferation was assessed using the CellTiter 96® AQueous One Solution Cell Proliferation Assay (MTS assay, Promega) according to manufacturer instructions. […] In some experiments, cell proliferation was assessed using a Neubauer chamber and trypan blue dye exclusion. […]\nCell proliferation was assessed using a […] viability assay (MTS assay) utilizing CellTiter 96® AQueous One Solution Cell Proliferation Assay (Promega) according to manufacturer instructions. […] Cell growth was assessed by MTS assay at 72 and 96 h. […] In patient sample experiments, cell proliferation was assessed by trypan blue exclusion."}, "[3]": {"tested_on": "CML CD34+ cells expressing BCR-ABL1T315I", "assay": "Liquid culture of primary T315I CML cells", "type": "cell-based, human", "details": "CC^mut3 or increasing concentrations of ponatinib (FIG. 28C)", "protocol": "Cell proliferation was assessed using the CellTiter 96® AQueous One Solution Cell Proliferation Assay (MTS assay, Promega) according to manufacturer instructions. Briefly, 5,000 viable cells were added to a single well in 96-well plate in 100 μL RPMI1640. Three independent samples were seeded in duplicate for each time point. […] In some experiments, cell proliferation was assessed using a Neubauer chamber and trypan blue dye exclusion."}, "[4]": {"tested_on": "Ba/F3-P210 cells", "assay": "7-AAD and Annexin V staining of protein-treated Ba/F3-P210 cells", "type": "cell-based, mouse", "details": "proteins 30 μM, imatinib 2.5 μM; 48 hours post treatment", "protocol": "0.5 μL of 1 mM 7-AAD (Invitrogen) was added to each sample, followed by a 45 minute incubation on ice. […] Analysis was performed using the FACS Canto-II (BD BioSciences, University of Utah Core Facility) with FACS Diva software. 7-AAD and APC were excited at 488 and 635 nm wavelengths, and emissions were detected at 660 nm. Percentage of apoptosis/necrosis was calculated by the percentage of cells that stained positive for 7-AAD and/or APC. Independent treatments were tested three times (n=3)."}, "[5]": {"tested_on": "Ba/F3 cells expressing native BCR-ABL1 (Ba/F3-p210)", "assay": "Colony forming assay of transfected Ba/F3-p210 cells", "type": "cell-based, mouse", "details": "CCmut3 alone vs EV or EGFP control", "protocol": "Briefly, K562 or Ba/F3-p210 cells were transfected according to the protocol above. One day following transfection, 1.0×10^6 cells per transfection group were collected and re-suspended in sterile PBS. […] Finally, 1.1 mL of cell/methylcellulose mixture was seeded in duplicate and allowed to grow at 37° C. and 5% CO2 for 7 days. Colony formation was assessed by counting colonies in two 200 μm2 areas on the plate. Experiments were performed once in duplicate (n=1 in duplicate). All kit reagents and media were purchased from Stem Cell Technologies (Vancouver, BC, Canada)."}}, "note": "“Also recorded” adds a separate entry of the source."}
{"molecule": "CCmut3: modified Bcr-Abl coiled-coil domain (residues 1-72) with mutations C38A, K39E, S41R, L45D, E48R, Q60E (protein) MVDPVGFAEAWKAQFPDSEPPRMELRSVGDIEQELERAEARIRRDEQRVNQERFRMIYLETLLAKEKKSYDR", "values": [{"measurement": "colony formation, in words", "setting": "[1]", "value": "significantly fewer colonies per unit area"}, {"measurement": "colony formation, in words", "setting": "[1]; listed as CC^mut3", "value": "Inhibition in colony formation"}, {"measurement": "reduction in CFCs / colony forming ability", "setting": "[1]", "value": "> 10", "unit": "fold"}, {"measurement": "reduction in CFCs / colony forming ability", "setting": "[1]; listed as CC^mut3", "value": "more than 10 fold"}, {"measurement": "proliferation, in words", "setting": "[2]", "value": "small yet significant growth reduction at 96 h but not 72 h; also recorded: significantly reduced proliferation of compound mutant cells at 96 h"}, {"measurement": "proliferation, in words", "setting": "[2]; listed as CC^mut3", "value": "significant growth reduction at 96 h; also recorded: smaller yet significant reduction in proliferation at 96 h"}, {"measurement": "effect in liquid culture", "setting": "[3]", "value": "no effect"}, {"measurement": "induction of apoptosis/necrosis", "setting": "[4]", "value": "not statistically different from the untreated control"}, {"measurement": "colony formation, in words", "setting": "[5]", "value": "greatly reduced; also recorded: nearly eliminated colony forming ability"}, {"measurement": "colony formation, in words", "setting": "[5]; listed as CC^mut3", "value": "greatly reduced; also recorded: nearly eliminated CFCs; also recorded: significantly lower than the EGFP control"}]}
